Measurements as given in paper PMC9882070 (bioRxiv, 2023).

B1: R1R3_12Q tau peptide (peptide)
peptide: TENLQHQPGGGQVQIVYK
B2: R1R3_13Q tau peptide (peptide)
peptide: TENLQHQPGGGKVQIVYQ
B3: R2R3_2Q tau peptide (peptide)
peptide: KDNIQHVPGGGSVQIVYK
B4: R1R2_12Q tau peptide (peptide)
peptide: TENLQHQPGGGQVQIINK
B5: R1R3_23Q tau peptide (peptide)
peptide: TENLKHQPGGGQVQIVYQ
B6: R2R3_3Q tau peptide (peptide)
peptide: KDNIKHVPGGGSVQIVYQ

Tests used:
Experiment in all cases: ThT fluorescence aggregation assay + negative-stain TEM
[1] = target: R2R3Ac, R2R3 tau peptide chemically acetylated with N-succinimidyl acetate
[2] = target: R1R3Ac, R1R3 tau peptide chemically acetylated with N-succinimidyl acetate
[3] = target: the molecule itself

Row | Molecule | t1/2max of ThT aggregation [3] [h] | also measured
1 | R2R3Ac, R2R3 tau peptide chemically acetylated with N-succinimidyl acetate |  | t1/2max of ThT aggregation [1]: 98.9 h
2 | R1R3Ac, R1R3 tau peptide chemically acetylated with N-succinimidyl acetate |  | t1/2max of ThT aggregation [2]: 39.8 h
3 | B1 | < 36 | 
4 | B2 |  | binding result [3]: binds
5 | B3 | 72 ± 7.2 | 
6 | B4 | < 36 | 
7 | B5 | < 6 | 
8 | B6 | 3.84 | 
